doi:10.1101/713511

How the values were obtained:
MOAG-4 (C. elegans) = experiment: fluorescence anisotropy
[1] = test system: T1, Atto550-SERF1a (human), O75920-2; experiment: fluorescence anisotropy
T1 sequence: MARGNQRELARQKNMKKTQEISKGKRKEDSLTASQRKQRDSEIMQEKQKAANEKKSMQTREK

| Substance | Kd (MOAG-4 (C. elegans)) | Kd [1] |
| --- | --- | --- |
| ACUGCUAGAGAUUUUCCACAU [Cy3-R21(-)] | 4790 nM |  |
| tRNA (type X-SA) |  | 1100 nM |
